Experimental data from the supplement of paper PMC9732359.
± gives the uncertainty stated by the source.

Experiment: protein stability index of a GFP-peptide fusion (yeast GPS) (PSI 1-4); higher = more stable; sorted into four equal gates, so the index is relative within each strain
Details: pdr5∆
Summary of the method: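 For each peptide, the protein stability index sums the read frequency in every gate after multiplying it by the gate number. Read frequencies came from plasmids that were PCR-amplified from each gate and Illumina-sequenced, with reads assigned to strains by barcodes. The gates were four equal bins of GFP/Cherry fluorescence ratio applied to mid-log yeast in leucine-free medium carrying a pooled library of tiled 17-residue yeast protein peptides fused downstream of GFP on a Cherry-expressing plasmid.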
Sequence RSLLQEAIETCKNFEKT [GAL11] has a protein stability index of 3.14 ± 0.15.
RSMSGQPPTNVQPTIGQ [SNF5] gave a protein stability index of 2.97 ± 0.071.
Work on RSPPRPPSLKIIDGPKA [PRP28] yielded a protein stability index of 2.27 ± 0.079.
RSVDRAGRKFKSRRCDD [POP4] showed a protein stability index of 3.16 ± 0.078.
Work on RSVRIPWYNNPVSCIIQ [PRP8] yielded a protein stability index of 2.19 ± 0.068.
RTNNVPMIKAEETPSKT [NUT1] gave a protein stability index of 2.86 ± 0.084.
For RTPDSISVNSSSFSLTF [POP1], the protein stability index was 2.62 ± 0.042.
RVAASFSQEALQYVVER [FAS1] gave a protein stability index of 1.19 ± 0.11.
With RVASDTVHEMEEELKKL [SMC4] the protein stability index was 3.33 ± 0.18.
For RVGVVSILEAGDSDILT [RPL30], the protein stability index was 2.97 ± 0.074.
In the case of RVHANLQCISQINQGVP [SNF11], the protein stability index is reported as 1.42 ± 0.043.
With RVHRLLRRGNYAQRIGS [HTA1] the protein stability index was 2.77 ± 0.19.
In the case of RVKAMEVDEKPTETYSD [RPT5], the protein stability index is reported as 3.32 ± 0.075.
RVNGSEFVHKYLGEGPR [RPT3] showed a protein stability index of 2.88 ± 0.063.
Work on RVPIRSEYKVAFPHLYN [PRP8] yielded a protein stability index of 2.27 ± 0.062.
For RVQVGDIVTVGQCRPIS [RPS11A], the protein stability index was 3.26 ± 0.082.
Sequence RVVRPKSLDAETEAEED [RPO21] has a protein stability index of 1.21 ± 0.13.
With RVVYLKHLEDNTLLVTG [RPL6B] the protein stability index was 1.12 ± 0.095.
For RWEMEAFGEFSLEGCVE [FAS2], the protein stability index was 3.36 ± 0.16.
Sequence RYENNDDDERVEYNLFT [BRN1] has a protein stability index of 3.27 ± 0.087.
In the case of RYISTLTLYLFQDYLTQ [IRR1], the protein stability index is reported as 1.76 ± 0.08.
RYLVGGNKIQKVLLDSK [RPS7A] gave a protein stability index of 2.01 ± 0.18.
RYNAKAIGSGSEGAQAE [PUP2] gave a protein stability index of 3.14 ± 0.093.
RYSMSEQFPFYLHDNAS [IRR1] gave a protein stability index of 3.01 ± 0.06.
RYWVQKERSDGKRHIFD [CDC53] gave a protein stability index of 2.98 ± 0.26.
SAAAAGNRNSSSVFLPS [BRR2] gave a protein stability index of 3.17 ± 0.063.
With SAARGLSLVYEIGGSDL [ECM29] the protein stability index was 1.94 ± 0.065.
In the case of SAGAVFKSSVEMGKTDK [YOR098C/NUP1], the protein stability index is reported as 3.25 ± 0.1.
SAGFETDLRLSTNGLGM [SNU114] showed a protein stability index of 3.46 ± 0.12.
For SAGLDSAQQNLASSFVN [RPN1], the protein stability index was 2.96 ± 0.16.
SAHQSPIMQTQMPLNSN [SNF2] gave a protein stability index of 2.37 ± 0.091.
Sequence SAIRKCVRVQLIKNGKK [RPS23A] has a protein stability index of 3.02 ± 0.069.
SALWSSRKGIAFGLGAI [ECM29] showed a protein stability index of 2.89 ± 0.094.
With SARNYDKFKLNENDLKT [SMC1] the protein stability index was 2.46 ± 0.088.
Work on SARSSVHESLVTQSNIL [SRB8] yielded a protein stability index of 3.04 ± 0.076.
Work on SASLHTRSLKYGKLRNG [RRP4] yielded a protein stability index of 2.15 ± 0.11.
SASPHLAPNMQLNGNET [SNF2] showed a protein stability index of 2.96 ± 0.043.
Work on SASVRALIENWAADSVS [FAS1] yielded a protein stability index of 2.48 ± 0.094.
With SAVKPRPLKLERGFACI [FAS1] the protein stability index was 2.36 ± 0.064.
With SDDIISQVDPITLFVLV [FAS2] the protein stability index was 1.38 ± 0.068.
SDDYDNEGAASSNPQSA [SMC1] gave a protein stability index of 3.42 ± 0.13.
In the case of SDFTFPEYYSTARVMGG [DIS3], the protein stability index is reported as 1.39 ± 0.084.
For SDIPVSENVFEGLTYKY [SSN3], the protein stability index was 1.89 ± 0.1.
For SDNNSRIMSRNFYLKRF [SWI1], the protein stability index was 2.67 ± 0.079.
SDSSSEDEVKVEGPKFT [YLR335W/NUP2] gave a protein stability index of 3.47 ± 0.13.
Sequence SDVLFEFTKINTPLVGA [YJL039C/NUP192] has a protein stability index of 1.66 ± 0.045.
Work on SDVLRFLQRVRVWEYRQ [RPL15A] yielded a protein stability index of 1.88 ± 0.066.
SEAKRTKFSNPAIPPVI [BRR2] gave a protein stability index of 2.25 ± 0.054.
In the case of SECIVSIKSKVVDHHVE [RRP42], the protein stability index is reported as 3.08 ± 0.08.
In the case of SEDSAVFKATSSTDEES [FAS1], the protein stability index is reported as 3.21 ± 0.11.
Work on SEEEEDEEENGSSDEDL [SSN2] yielded a protein stability index of 3.74 ± 0.24.
In the case of SEEIDSLNEDVEEIKLQ [SMC2], the protein stability index is reported as 3.41 ± 0.14.
Sequence SEHFDVNDNPDIEAGDD [DIS3] has a protein stability index of 2.93 ± 0.058.
For SELFDEWFEQNNSEQDQ [ISW2], the protein stability index was 2.54 ± 0.071.
In the case of SELPDIYSRDIGAELKR [SNF2], the protein stability index is reported as 3.26 ± 0.13.
SENHTESDAPPKSTAPI [YOR098C/NUP1] showed a protein stability index of 2.24 ± 0.054.
Sequence SEPIKEIIDNWEKYEQS [FAS1] has a protein stability index of 3.22 ± 0.07.
Sequence SESQLNSTLKKVESQET [YCS4] has a protein stability index of 3.4 ± 0.22.
Work on SETDKRQFLHELRRPGV [RPO31] yielded a protein stability index of 1.73 ± 0.059.
SETFLQFYVKRWKRFTI [CDC53] showed a protein stability index of 2.74 ± 0.063.
Work on SFEETVEILFEAGASAE [RPO21] yielded a protein stability index of 2.77 ± 0.09.
In the case of SFGKIYVTKPMVNESDG [RPB2], the protein stability index is reported as 3.18 ± 0.14.
With SFGSKPTGKEEGDGAKA [YJL041W/NSP1] the protein stability index was 3.31 ± 0.065.
SFIFQYYGLVIDLLLLG [PRP8] gave a protein stability index of 1.2 ± 0.054.
Sequence SFKYLSNNDEDDKDCTI [RGR1] has a protein stability index of 2.41 ± 0.04.
Sequence SFLFDVLKTLEYKLATY [NUT1] has a protein stability index of 2.18 ± 0.07.
For SFLFSAIPLQQVLSQSA [SWI1], the protein stability index was 1.43 ± 0.064.
For SFLSGVKSLLSEEKIRD [SIR4], the protein stability index was 3.11 ± 0.072.
With SFNMAQIPQQLYQSLTP [SNF5] the protein stability index was 2.35 ± 0.072.
For SFSFGAPESMKSTASTA [YOR098C/NUP1], the protein stability index was 3.13 ± 0.091.
SFVKETKLHSGDYGEEE [SRB8] gave a protein stability index of 3.22 ± 0.13.
Work on SGAITFVNETPRVIEPV [PRP8] yielded a protein stability index of 1.96 ± 0.27.
SGDSGVYTLACRSCPYE [RPC11] showed a protein stability index of 2.01 ± 0.18.
SGKETASAPLCSPKLPV [DLS1] showed a protein stability index of 3.13 ± 0.05.
SGNNNGGFTNLTSQAPQ [YDL088C/ASM4] gave a protein stability index of 3.31 ± 0.053.
Work on SGNNSKKRKNKSSGSSM [ROX3] yielded a protein stability index of 2.94 ± 0.075.
Work on SGNNYNDINISSIENNI [MED2] yielded a protein stability index of 3.02 ± 0.036.
In the case of SGQFYFRNPTPLLSNYA [RGR1], the protein stability index is reported as 1.54 ± 0.045.
SGSAGANPAGASQPEPT [YJL041W/NSP1] showed a protein stability index of 3.2 ± 0.13.
In the case of SGSLFGSNNAQTSRGLF [YGL172W/NUP49], the protein stability index is reported as 3.01 ± 0.06.
In the case of SGSQNISEFDSFTDILK [RPN12], the protein stability index is reported as 3.12 ± 0.09.
Sequence SGTPITQTESKKEENET [SNF2] has a protein stability index of 2.59 ± 0.045.
SGYGKRKGTREARLPSQ [RPL19A] showed a protein stability index of 3.29 ± 0.28.
SHDASRSLASFEQTAFS [SIR4] showed a protein stability index of 2.67 ± 0.049.
Work on SHLWEIDIPLDEQAFYN [RPC37] yielded a protein stability index of 2.45 ± 0.27.
SIDCLLILILVISFGQP [SWI1] gave a protein stability index of 1.64 ± 0.034.
With SIDPPGCVDIDDALHAK [DIS3] the protein stability index was 3.19 ± 0.072.
SIGEPATQMTLNTFHFA [RPO21] gave a protein stability index of 3.04 ± 0.11.
SIKDTQNVGQGKLQRKE [BRN1] showed a protein stability index of 2.56 ± 0.081.
Work on SIKSKVVDHHVENELLQ [RRP42] yielded a protein stability index of 3.24 ± 0.2.
For SIQMEFMLRKQDPKTLV [SSN2], the protein stability index was 2 ± 0.049.
SIREDILECDLLICIGT [SIR2] showed a protein stability index of 2.15 ± 0.058.
For SIREQVHMYHKSLALLG [SNF5], the protein stability index was 1.74 ± 0.041.
Work on SIWGNGYSGYGNGITNT [SNF5] yielded a protein stability index of 3.4 ± 0.12.
SKFYNMKQPYVFVKKHH [SSN2] gave a protein stability index of 1.5 ± 0.11.
Work on SKHNERNKSAANNDINS [YDL088C/ASM4] yielded a protein stability index of 3.21 ± 0.12.
SKISFIDEDKLYPSFKP [SSN2] showed a protein stability index of 2.8 ± 0.12.
